Data as given in US20200171163A1 (Daiichi Sankyo, published 2020).
Changes are numbered by the printed parent chain.

Tests used:
[1] = target: T1, cynomolgus monkey CDH6 (on cells) (cynomolgus monkey, UniProt P55285 54-790 (human entry)); assay: Cell-ELISA and flow cytometry screening of hybridoma supernatants on transfected cells
T1 construct: Expressed from pcDNA3.1-cynoCDH6; also called cynoCDH6
T1 sequence: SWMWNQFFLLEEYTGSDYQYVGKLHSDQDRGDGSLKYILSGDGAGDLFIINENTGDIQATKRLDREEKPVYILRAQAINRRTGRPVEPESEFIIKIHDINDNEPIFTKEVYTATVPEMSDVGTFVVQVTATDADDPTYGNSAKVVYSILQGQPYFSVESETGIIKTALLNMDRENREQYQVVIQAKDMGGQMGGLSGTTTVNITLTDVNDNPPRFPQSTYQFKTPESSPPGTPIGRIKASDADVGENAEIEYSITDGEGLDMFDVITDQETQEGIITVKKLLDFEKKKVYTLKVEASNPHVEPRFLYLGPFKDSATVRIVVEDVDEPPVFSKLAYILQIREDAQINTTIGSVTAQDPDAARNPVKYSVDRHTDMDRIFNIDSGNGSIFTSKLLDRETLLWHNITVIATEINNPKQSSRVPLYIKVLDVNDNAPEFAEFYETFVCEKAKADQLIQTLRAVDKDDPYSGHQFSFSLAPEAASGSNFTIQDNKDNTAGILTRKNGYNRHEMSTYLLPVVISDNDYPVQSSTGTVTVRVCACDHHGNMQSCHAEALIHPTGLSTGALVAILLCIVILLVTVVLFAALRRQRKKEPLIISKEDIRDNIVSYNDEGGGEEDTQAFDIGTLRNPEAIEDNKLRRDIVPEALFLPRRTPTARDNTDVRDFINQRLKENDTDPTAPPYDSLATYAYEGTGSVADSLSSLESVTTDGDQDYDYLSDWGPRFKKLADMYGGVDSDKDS
Method: A coloring reaction was carried out with occasional stirring. Thereafter, 1 M HCl was added to the plate (100 μL/well) to terminate the coloring reaction, followed by measurement of the absorbance at 490 nm using a plate reader (ENVISION: PerkinElmer, Inc.).
The binding specificity to cynomolgus monkey CDH6 of an antibody produced from the human CDH6- and cynomolgus monkey CDH6-binding antibody-producing hybridomas that had been selected by Cell-ELISA in Example 1)-4 was further confirmed by flow cytometry. […] Thereafter, the cells were suspended by the addition of the culture supernatant from each hybridoma. The cells were left standing at 4° C. for 1 hour. The cells were washed twice with PBS supplemented with 5% FBS, and thereafter, the cells were suspended by the addition of Anti-Rat IgG FITC conjugate (Sigma-Aldrich Co. LLC) that had been 500-fold diluted with PBS supplemented with 5% FBS. The cells were left standing at 4° C. for 1 hour. The cells were washed twice with PBS supplemented with 5% FBS, and then re-suspended in PBS supplemented with 5% FBS and 2 μg/ml 7-aminoactinomycin D (Molecular Probes, Inc.), followed by detection using a flow cytometer (FC500; Beckman Coulter, Inc.). The data was analyzed using FlowJo (Tree Star, Inc.). After dead cells were removed from analysis by gating out 7-aminoactinomycin D-positive cells, a histogram of the FITC fluorescence intensity of live cells was generated.

mouse CDH6 (on cells) = target: T2, mouse CDH6 (on cells) (mouse, UniProt P97326 54-790); assay: flow cytometry, MFI vs antibody concentration; 293α cells transiently transfected with mCDH6; PE anti-human IgG Fc
T2 construct: also called mCDH6
T2 sequence: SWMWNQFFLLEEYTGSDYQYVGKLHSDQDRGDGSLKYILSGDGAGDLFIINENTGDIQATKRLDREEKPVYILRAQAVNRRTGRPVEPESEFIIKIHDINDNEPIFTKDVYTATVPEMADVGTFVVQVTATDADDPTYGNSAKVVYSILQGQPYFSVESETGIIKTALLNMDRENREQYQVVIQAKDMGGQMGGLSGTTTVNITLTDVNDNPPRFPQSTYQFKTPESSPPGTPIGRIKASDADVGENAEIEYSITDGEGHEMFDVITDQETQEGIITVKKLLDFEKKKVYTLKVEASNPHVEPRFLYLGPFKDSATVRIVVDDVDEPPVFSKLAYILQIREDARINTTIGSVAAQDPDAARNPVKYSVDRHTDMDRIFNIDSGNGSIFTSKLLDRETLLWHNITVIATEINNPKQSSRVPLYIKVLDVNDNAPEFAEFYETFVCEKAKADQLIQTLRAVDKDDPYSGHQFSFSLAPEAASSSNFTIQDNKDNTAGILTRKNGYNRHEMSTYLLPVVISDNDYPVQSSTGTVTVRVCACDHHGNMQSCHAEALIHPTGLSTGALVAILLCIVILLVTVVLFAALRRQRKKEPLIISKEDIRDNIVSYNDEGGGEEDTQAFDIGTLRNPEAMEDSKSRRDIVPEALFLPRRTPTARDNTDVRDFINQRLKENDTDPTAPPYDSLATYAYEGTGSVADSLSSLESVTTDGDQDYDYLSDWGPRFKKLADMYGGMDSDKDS
Method: The cells were cultured overnight under conditions of 37° C. and 5% CO₂, and thereafter, a cell suspension was prepared. […] Thereafter, the cells were suspended by the addition of each of the 4 humanized hG019 antibodies (clone Nos: H01L02, H02L02, H02L03 and H04L02), which had been prepared in Example 5)-5-3, or human IgG1 control (Calbiochem). The cells were left standing at 4° C. for 1 hour. The cells were washed twice with PBS supplemented with 5% FBS, and then suspended by the addition of anti-human IgG, Fc(gamma) PE goat F(ab′) (Jackson ImmunoResearch Laboratories, Inc.) that had been 500-fold diluted with PBS supplemented with 5% FBS. The cells were left standing at 4° C. for 1 hour. The cells were washed twice with PBS supplemented with 5% FBS, followed by detection using a flow cytometer (Canto II; BD Biosciences). The data was analyzed using FlowJo (Tree Star, Inc.). In FIGS. 6-1 and 6-2, the abscissa depicts antibody concentration, and the ordinate depicts the amount of the antibody bound based on mean fluorescence intensity. As shown in FIGS. 6-1 and 6-2, the human IgG1 control as a negative control binds to none of the CDH6-transfected cells. The 4 humanized hG019 antibodies (clone Nos: H01L02, H02L02, H02L03 and H04L02) bind to human CDH6 and cynomolgus monkey CDH6, but bind to neither mouse nor rat CDH6. None of the antibodies bind to the cells transfected with the empty vector pcDNA3.1 as a negative control.

B1: rG055 antibody (antibody, V domains shown)
VH: EVQLQESGPGLVRPSQSLSLSCSVTDYSITSNYWGWIRRFPGNKMEWMGYITYSGYTSYNPSLQSRISITRDTSKNQFFLQLNSVTAEDTATYYCARSINHGGYSYVVDAWGPGASVTVSS
VL: DVQMTHSPSYLAASPGESVSISCKTSKNISNYLVWYQQKPGEAYKLLIYSGSTLQSGTPSRFSGSGSGTDFTLTIRSLEPEDFGLYFCQQYYEKPFTFGSGTKLEIKR
notes: Rat monoclonal purified from hybridoma; also called rat anti-CDH6 monoclonal antibody clone rG055
binding result [1]: binds

B2: rG061 antibody (antibody, V domains shown)
VH: EVQLQESGPGLVKPSQSLSLTCSVTGYSITTYYWGWIRKFPGNKMEWMGYISYSGRTSYNPSLKSRMSITRDASKNQFFLQLNSVTTDDTATYYCARSPINHGGYWYFDFWGPGTMVTVSS
VL: B1 VL with H6Q, T25A, S26T, N28S, V34A, L46V, F87S, F96L
notes: Rat monoclonal purified from hybridoma; also called rat anti-CDH6 monoclonal antibody clone rG061
binding result [1]: binds

B3: rG056 antibody (antibody, V domains shown)
VH: EVQLQESGPGLVKPSQSLSLTCSVTDYSITTYFWGWIRKFPGNKMEWMGYMSYRGGTSYNPSLKSRISITRDTSKNQFFLQLNSVTTEDTATYYCARCPNYGGHSLVFDYWGQGVMVTVSS
VL: DVQMTQSPSSLAASPGESVSISCRATKSIGIYLAWYQQKPGKTFKLLIYSGSTLQSGTPSRFSGSGSGTDFTLTIRSLEPEDFGLYFCQQFYENPFTFGSGTKLEIRR
notes: Rat monoclonal purified from hybridoma; also called rat anti-CDH6 monoclonal antibody clone rG056
binding result [1]: binds

B4: H02L02 antibody (antibody, human IgG1, kappa, V domains shown)
VH: EVQLVQSGAEVKKPGASVKVSCKASGYTFTRNFMHWVRQAPGQGLEWMGWIYPGDGETEYNQKFQGRVTITADRSTSTAYMELSSLRSEDTAVYFCARGVYGGFAGGYFDFWGQGTLVTVSS
VL: DIQMTQSPSSLSASVGDRVTITCKASQNIYKNLAWYQQKPGKAPKLLIYDANTLQTGVPSRFSGSGSGSDFTLTISSLQPEDFATYFCQQYYSGWAFGQGTKVEIKR
notes: Humanized IgG1/kappa (hH02 + hL02); also called humanized hG019 antibody H02L02
binding result (mouse CDH6 (on cells)): no binding (tested: about 4 nM)

B5: H02L03 antibody (antibody, human IgG1, kappa, V domains shown)
VH: B4 VH
VL: B4 VL with P40L, K42E, A43G, S69T, F87Y
notes: Humanized IgG1/kappa (hH02 + hL03); also called humanized hG019 antibody H02L03
binding result (mouse CDH6 (on cells)): no binding (tested: about 4 nM)

B6: H04L02 antibody (antibody, human IgG1, kappa, V domains shown)
VH: B4 VH with E1Q, V37I, N61A, I70L, F95Y
VL: B4 VL
notes: Humanized IgG1/kappa (hH04 + hL02); also called humanized hG019 antibody H04L02
binding result (mouse CDH6 (on cells)): no binding (tested: about 4 nM)

B7: H01L02 antibody (antibody, human IgG1, kappa, V domains shown)
VH: B4 VH with N61A, R74T, F95Y
VL: B4 VL
notes: Humanized IgG1/kappa (hH01 + hL02); also called humanized hG019 antibody H01L02; labeled H01L02
binding result (mouse CDH6 (on cells)): no binding (tested: about 4 nM)

B8: rG019 antibody (antibody, V domains shown)
VH: QVQLQQSGAELVKPGSSVKISCKASGYTFTRNFMHWIKQQPGNGLEWIGWIYCGDGETEYNQKFNGKATLTADRSSSTAYMELSRLTSEDSAVYFCARGVYGGFAGGYFDFWGQGVMVTVSS
VL: DIQMTQSPSLLSASVGDRVTLNCKASQNIYKNLAWYQQKLGEGPKLLIYDANTLQTGIPSRFSGSGSGSDFTLTISSLQPEDVATYFCQQYYSGWAFGGVTNLELKRA
notes: Rat monoclonal purified from hybridoma; also called rat anti-CDH6 monoclonal antibody clone rG019
binding result [1]: binds
